In US20210023129A1, “PLATINUM PRODRUG PERFLUOROARYL PEPTIDE CONJUGATES” (MASSACHUSETTS INSTITUTE OF TECHNOLOGY, priority 2019, published 2021):
*1 amine or outer side, *2 acyl side, *3 side chain or, on linkers, in order; H or OH if unused. Where a SMILES comes first, the peptide text is derived from it. Bridges are numbered along the chain shown (N, C = ends). Perfluorobiphenyl(4,4') = Fc1c(F)c([*:1])c(F)c(F)c1-c1c(F)c(F)c([*:2])c(F)c1F; Suc = O=C(CCC(=O)[*:2])[*:1]

Experiments:
[1] = test system: G9 neurospheres (patient-derived glioma cells); details: for IC50: read-out: IC50 against the G9 cells, treated for 80 hours, CellTiter-Glo
Procedure: The cytotoxicity of the PtIV-M13 conjugate was evaluated against patient-derived glioma cells (GCs). To evaluate the in vitro efficacy of the conjugate, G9 neurospheres were treated with PtIV-M13, prodrug 4, and cisplatin for 80 hours. After treatment, the potency of the compounds was assessed by the CellTiter-Glo luminescent cell viability assay (FIGS. 2A and 2B). The assay involves lysis of the cells and quantitation of the amount of ATP present, which is directly proportional to the number of living cells in culture. […] The same experiment was repeated on G30 GCs.

[2] = test system: G30 GCs (patient-derived glioma cells); assay: CellTiter-Glo luminescent cell viability assay, G30 GCs; type: cell-based, human; details: same experiment as G9 (80 hours, CellTiter-Glo), read-out: IC50 (potency) on G30 GCs
Procedure: The cytotoxicity of the PtIV-M13 conjugate was evaluated against patient-derived glioma cells (GCs). To evaluate the in vitro efficacy of the conjugate, G9 neurospheres were treated with PtIV-M13, prodrug 4, and cisplatin for 80 hours. After treatment, the potency of the compounds was assessed by the CellTiter-Glo luminescent cell viability assay (FIGS. 2A and 2B). The assay involves lysis of the cells and quantitation of the amount of ATP present, which is directly proportional to the number of living cells in culture. […] However, prodrug 4 was not potent, perhaps due to an inability to enter cells (FIG. 2A). As a result, in the follow-up in vitro experiment with another GC line, PtIV-L13 was used as a control instead as this should have similar properties to the PtIV-M13, only without the perfluoroaryl. The same experiment was repeated on G30 GCs.

[3] = Pharmacokinetics in healthy mice: platinum in serum and brain by GFAAS; details: tail vein; for brain distribution of platinum over time / serum concentration of platinum over time: 100 μL of 100 μM (~2.5 mg/kg), 1, 2.5 and 5 hours
Procedure: Pharmacokinetic and biodistribution studies were performed in healthy mice. For pharmacokinetics, 100 μL of a 100 μM solution of PtIV-M13 or PtIV-L13 dissolved in saline (corresponding to a dose of ˜2.5 mg/kg) were injected into the tail veins of mice. The brain and a blood sample were isolated at 1, 2.5, and 5 hours. A portion of the brain was dissolved in nitric acid and the amount of platinum in the brain and serum were quantified by GFAAS. […] The error bars are the standard deviation from three different animals injected with the compound. […] The error bars are the standard deviation from three different animals injected with the compound.

[4] = Biodistribution in mice: platinum in organs by GFAAS; details: tail vein, 100 μL of 100 μM in saline, after five hours
Procedure: To study the biodistribution, 100 μL of a 100 μM solution of PtIV-M13, PtIV-L13, or cisplatin dissolved in normal saline were injected into the tail vein of mice. After five hours, the mice were sacrificed and the brain, heart, lungs, kidney, spleen and liver were removed. The amount of platinum in each organ was measured by dissolving a portion of the respective organ in nitric acid and then quantifying the amount of platinum by GFAAS (supporting information).

SMILES	IC50 [1]	IC50 [2]	brain distribution of platinum over time [3]	serum concentration of platinum over time [3]	brain uptake versus linear control PtIV-L13 ([3]; ~2.5 mg/kg, brain platinum read-out)	stability in serum versus linear control PtIV-L13 ([3]; ~2.5 mg/kg, serum platinum read-out)	increase in the amount of platinum in the brain compared with cisplatin [4]	IC50 against the G9 cells ([1]; treated for 80 hours, CellTiter-Glo)
CC[C@H](C)[C@H](NC(=O)[C@H](CCCCN)NC(=O)CNC(=O)[C@H](CC(C)C)NC(=O)[C@H](CC(C)C)NC(=O)[C@H](Cc1ccc(O)cc1)NC(=O)CNC(=O)[C@H](C)NC(=O)CCC(=O)O)C(=O)N[C@@H](CC(N)=O)C(=O)N[C@@H](CC(C)C)C(=O)N[C@@H](CCCCN)C(=O)N[C@@H](C)C(=O)N[C@H]1CSc2c(F)c(F)c(c(F)c2F)-c2c(F)c(F)c(c(F)c2F)SC[C@@H](C(=O)N[C@@H](CC(C)C)C(N)=O)NC(=O)[C@H](CCCCN)NC(=O)[C@H](CCCCN)NC(=O)[C@H](C)NC(=O)[C@H](CC(C)C)NC(=O)[C@H](C)NC(=O)[C@H](C)NC1=O [PtIV-M13] (Suc-AGYLLGKINLKACAALAKKCL-NH2; linker 13-20 via Perfluorobiphenyl(4,4'))	4.51 ± 0.22 µM	4.04 µM	increased over time	decreased over time	more brain uptake	more stable in serum	15 fold	–
N.N.[Cl][Pt][Cl] [cisplatin, reference compound]	4.34 ± 0.66 µM	–	–	–	–	–	–	–
CC[C@H](C)[C@H](NC(=O)[C@H](CCCCN)NC(=O)CNC(=O)[C@H](CC(C)C)NC(=O)[C@H](CC(C)C)NC(=O)[C@H](Cc1ccc(O)cc1)NC(=O)CNC(=O)[C@H](C)NC(=O)CCC(=O)O)C(=O)N[C@@H](CC(N)=O)C(=O)N[C@@H](CC(C)C)C(=O)N[C@@H](CCCCN)C(=O)N[C@@H](C)C(=O)N[C@@H](CO)C(=O)N[C@@H](C)C(=O)N[C@@H](C)C(=O)N[C@@H](CC(C)C)C(=O)N[C@@H](C)C(=O)N[C@@H](CCCCN)C(=O)N[C@@H](CCCCN)C(=O)N[C@@H](CO)C(=O)N[C@@H](CC(C)C)C(N)=O [PtIV-L13] (Suc-AGYLLGKINLKASAALAKKSL-NH2)	–	28.8 µM	increased over time	decreased over time	–	–	–	–
CCCCNC(=O)[O][Pt]([NH2])([NH2])([Cl])([Cl])[O]C(=O)CCC(=O)O [prodrug 4]	–	–	–	–	–	–	–	not potent
